Source: patent US20230279151A1

Biological target: human IL13 (IL012, Millipore) (human) (UniProt P35225)
Experiment: SPR, Biacore 3000, antibody captured by anti-human Fc, IL13 as analyte; HEK293-FS expression

Sequence of human IL13 (IL012, Millipore) (human) (P35225 35-146 limits assumed): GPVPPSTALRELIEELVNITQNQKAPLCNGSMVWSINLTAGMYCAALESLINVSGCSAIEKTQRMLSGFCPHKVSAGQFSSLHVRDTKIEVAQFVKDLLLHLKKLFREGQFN

Kd: 0.0888 nM | koff: 4.52e-05 s⁻¹ | kon: 508000 M⁻¹ s⁻¹
B1: anti-IL13 mAb ctrl (antibody, from a related filing, V domains shown)
VH: EVQLKESGPGLVAPGGSLSITCTVSGFSLTDSSINWVRQPPGKGLEWLGMIWGDGRIDYADALKSRLSISKDSSKSQVFLEMTSLRTDDTATYYCARDGYFPYAMDFWGQGTSVTVSS
VL: DIVLTQSPASLAVSLGQRATISCRASESVDSYGQSYMHWYQQKAGQPPKLLIYLASNLESGVPARFSGSGSRTDFTLTIDPVQAEDAATYYCQQNAEDSRTFGGGTKLEIK
